Two proteins from article PMC5597324 (Molecular Biology of the Cell, 2017) can be followed below.

Numbering of substitutions follows the chain as printed. Names may count otherwise.

The series deals with the molecule itself. Nature of the series: SEC.

B1: MBP-Stv1NT-FLAG (cytosolic N-terminal domain of the yeast Golgi V-ATPase Vo a-subunit isoform Stv1, aa 1-418) (domain or fragment, S. cerevisiae, UniProt P37296 1-418, looked up)
chain: MNQEEAIFRSADMTYVQLYIPLEVIREVTFLLGKMSVFMVMDLNKDLTAFQRGYVNQLRRFDEVERMVGFLNEVVEKHAAETWKYILHIDDEGNDIAQPDMADLINTMEPLSLENVNDMVKEITDCESRARQLDESLDSLRSKLNDLLEQRQVIFECSKFIEVNPGIAGRATNPEIEQEERDVDEFRMTPDDISETLSDAFSFDDETPQDRGALGNDLTRNQSVEDLSFLEQGYQHRYMITGSIRRTKVDILNRILWRLLRGNLIFQNFPIEEPLLEGKEKVEKDCFIIFTHGETLLKKVKRVIDSLNGKIVSLNTRSSELVDTLNRQIDDLQRILDTTEQTLHTELLVIHDQLPVWSAMTKREKYVYTTLNKFQQESQGLIAEGWVPSTELIHLQDSLKDYIETLGSEYSTVFNVIL
With B1, the binding result is given as “binds”.

B2: MBP-Stv1NT(K84A)-FLAG (domain or fragment, S. cerevisiae, UniProt P37296 1-418, looked up)
chain: B1 chain with K84A
Take B2: the binding result was “binds”.
